{"source": "patent US20080090755A1", "key": {"activin": {"biological_target": "activin", "test": "cell-based or functional assay"}, "[1]": {"biological_target": "growth/differentiation factor-8 (GDF-8) (UniProt O14793)", "sequence (O14793 267-375 limits assumed)": "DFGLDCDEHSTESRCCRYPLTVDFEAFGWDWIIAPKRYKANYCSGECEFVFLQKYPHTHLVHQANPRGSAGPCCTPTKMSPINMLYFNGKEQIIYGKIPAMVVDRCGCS", "test": "cell-based or functional assay"}}, "data": [{"substance": "follistatin", "values": [{"measurement": "inhibition of elevation in standardized luciferase activity due to activin ((CAGA)12-MLP-Luc reporter assay, HEK293 cells)", "setting": "activin", "result": 100, "unit": "%"}, {"measurement": "inhibition of elevation in standardized luciferase activity due to GDF-8 ((CAGA)12-MLP-Luc reporter assay, HEK293 cells)", "setting": "[1]", "result": 100, "unit": "%"}]}]}
